From patent KR20220013297A (dated 2022) come the findings set out here.

For assay [1], the target named is T1, SARS-CoV-2 바이러스 표면 단백질 (RBD), WT (SARS-CoV-2, UniProt P0DTC2 319-541). In words: BLI (Octet), Full IgG culture supernatant on SARS-CoV-2 RBD.
Assay [2] has as its target T1, SARS-CoV-2 바이러스 표면 단백질 (RBD), WT. Nature of the assay: BLI (Octet), Full IgG on RBD WT. (In general: BLI is a label-free optical method that tracks binding on a fibre tip over time.)

B1: No. 32 항체 (Full IgG) (antibody, V domains shown)
VH: EVQLVQSGGGLIQPGGSLRLSCAASEFIVSSNYMTWVRQAPGKGLEWVSIIYPGGSTYYADSVKGRFTISRDNSKNTLYLRMNSLRAEDTAVYYCARDLPLTGTTLDYWGQGTLVTVSS
VL: not shown
For the molecule B1, in assay [1], the Kd (usually the equilibrium constant for the complex coming apart) amounted to 0.147 nM. Besides, in assay [2], the Kd is 0.305 nM; the koff (commonly the first-order rate constant of dissociation) is 0.000193 s⁻¹; the on-rate (kon) (in general, a measure of how fast the partners come together) turned out to be 633000 M⁻¹ s⁻¹.
